In patent US20260234247A1:

Tests used:
[1] = target: Rhesus LILRB1 (NP_001035762.2) on CHOK1 cells (rhesus macaque) (UniProt F7H3G7); test: flow cytometry on CHOK1-rhesus LILRB1 (NP_001035762.2) cells
[2] = target: Cynomolgus LILRB2 on CHOK1 cells (cynomolgus); test: flow cytometry on CHOK1-cyno LILRB2 cells
[3] = target: Rhesus LILRB1 (NP_001035762.2) on CHOK1 cells (rhesus macaque) (UniProt F7H3G7); test: cell based blocking assay on CHOK1-rhesus LILRB1 (NP_001035762.2) cells; blocked ligand not named

Binder | EC50 [1] [nM] | EC50 [2] [nM] | EC50 [3] [nM] | Top Inhibition (%) [3] [%]
LK-RB2-16 (antibody, human IgG4 S228P, kappa, V domains shown) VH: QIQLVQSGPELKKPGETVKISCKASGYTFTTYGMGWVKQAPEKGLKWMGWINTNSGAPTYGDDFKGRFAFSLETSASTAYLQINNLKNEDTATYFCAHYGRPWFAYWGQGTLVTVSA VL: DIQMTQSPASLSASVGETVTITCRASENIYSYLAWYHQKQGESPQLLVYNAKTLAEGVPSRFSGSGSGTQFSLKINSLQPEDFGSYYCQHHYNIPLTFGAGTKLELKR | 18.5 | – | – | –
LK-RB2-25 (antibody, human IgG4 S228P, kappa, V domains shown) VH: QVQLKESGPGLVAPSQSLSITCTVSGFSLTSYGVHWVRQPPGKGLEWLGVIWAGGSTKYNSALMSRLSINKDNSKSQVFLKMNSLQTDDTAMYYCARDQMVRSAMDYWGQGTSVTVSS VL: DIQMIQSPSSMFASLGDRVSLSCRASQGIRGNLDWYQQKPGGTIKLLIYSTSNLNSAVPSRFSGSGSGSDYSLTISNLESEDFADYYCLQRNASPYTFGGGTKLEIKR | – | 1.48 | – | –
LK-RB1-42 (antibody, human IgG4 S228P, kappa, V domains shown) VH: QVQLQQPGAELVKPGTSVKLSCKASGYSFISYWVYWVKQRPGQGLEWIGMIHPNSGSTNFNEKFRYKATLTVDKSSSTAYIQLSSLTSEDSAVYYCGRSDDGYPYHAMDSWGQGTSVTVSS VL: DIVMTQSQKFMSTSVGDRVSVTCKASQNVGTNVAWYQQKPGQSPKALIYSASYRFSGVPDRFTGSGSGTDFTLTIGNVQSEDLAEYFCHQYKNYPLTFGGGTKLEIKR | 59.8 | – | – | –
LK-RB1-39 (antibody, human IgG4 S228P, kappa, V domains shown) VH: EVQLQQSGAELVRPGASVKLSCTASGFNIKDDYVHWVNQRPEQGLEWIGWIDPENGDTGYASKFQDKATITADTSSNTAYLHLSSLTSEDTAVYYCTTTRWTGSYWGQGTTLTVSS VL: QIVLTQSPAIMSASPGEKVTITCSASSSVNYMHWFQQKPGSSPKLWIYSTANLASGVPARFSGSGSGTSYSLTISRMEAEDAATYYCQQRSSYPPTWTFGGGTKLEIKR | 0.36 | – | 0.16 | 73.1
LK-RB1-54 (antibody, human IgG4 S228P, kappa, V domains shown) VH: DVQLQESGPGLVKPSQSLSLTCSVTGYSITSGFYWNWIRQFPGNKLEWMGHISYDGTNNYNPSLKNRISITRDTSKNLFFLKLNSVTTEDTATFHCARGGYGGSYGFDYWGQGTTLTVSS VL: ENVLTQSPAIMSASLGEKVTMSCRASSSVNYMYWYQQKSDASPKLWIYYTSNLAPGVPVRFSGSGSGNSYSLTISSMEGEDAATYYCQQFTSSPWTFGGGTKLEIKR | – | – | 1.2 | 54
LK-RB1-50 (antibody, human IgG4 S228P, kappa, V domains shown) VH: QVQLKQSGPGLVQPSQSLSITCTVSGFSLTSYGVHWVRQSPGKGLEWLGVIWRGGNTDYNAPFVSRLSITKDNSQSQVFFKMNSLEADDTAIYYCAKNSLDVYSSWYFDVWGTGTTVTVSS VL: QIVLSQSPAILSAFPGEKVTMTCRASSSVSFMHWYQQKPGSSPKPWIYATSNLASGVPARFSGSGSGTSYSLTISRVEAEDAATYYCQQWSSNPLTFGAGTKLELKR | 11.2 | – | 5.68 | 57.8
LK-RB1-58 (antibody, human IgG4 S228P, kappa, V domains shown) VH: QVQLKQSGPGLVQPSQSLSITCTVSGFSLTTYGVHWVRQSPGKGLEWLGVIWRGGSTDYNAAFMSRLSITKDNSKSQVFFRMNSLQADDTARYYCAKNSLYYGSSWYFDVWGTGTTVTVSS VL: QIVLSQSPAILSASPGEKVTMTCRASSSVSFMHWYQQKPGSSPKPWIYATSNLASGVPARFSGSGSGTSYSLTISRVEAEDAATYYCQQWSSNPPTFGGGTKLEIKR | 158 | – | 1.42 | 45.4
LK-RB1-38 (antibody, human IgG4 S228P, kappa, V domains shown) VH: DVQLQESGPGLVQPSQSLSLTCSVTGYSITSGYQWNWIRQLPGNKLEWMAYISFDGSNNYNPSLKNRISITRDTSKNQFFLKLKSVTTEDTATYYCARRDYDGVAYWGQGTLVTVSA VL: EIVLTQSPATLSVTPGDRVSLSCRASQNISNYLHWYQQKSHGSPRLIIKYASQSISGIPSRFSGSGSGTDFTLSINSVETEDFGMYFCQQSNSWPLTFGAGTKLELKR | 4.97 | – | – | –
LK-RB1-36 (antibody, human IgG4 S228P, kappa, V domains shown) VH: DVQLQESGPGLEKPSQSLSLTCSVTGYSITRGYQWNWIRQFPGNKLEWMGYISYDGSNNYNPSLKNRISIIRDTSKNQFFLKLNSVTTEDTATYYCARRSYNSIDYWGQGTTLTVSS VL: DIVLTQSPATLSVTPGDSVSLSCRASQSISNNLHWYQQKSHESPRLLIKYASQSISGIPSRFSGSGSGTDFTLSINSVETEDFGMYFCQQSNSWPLTFGAGTKLELKR | 0.54 | – | – | –
LK-RB1-45 (antibody, human IgG4 S228P, kappa, V domains shown) VH: QVQLQQSGTELARPGASVKLSCKASGYTFTNFWMHWIKQRPGQGLEWIGYVNPTSDYTKYNQKFKDKATLTADKSSSTAYMQLNSLTYEDSAVYYCTRSSLYDTNYVFDSWGQGTTLTVSS VL: DILLTQSPAILSVSPGERVSFSCRASQSIGRSIHWYQQRTNGSPRLLIKYASESISGIPSRFSGGGSGTDFTLSISNVESEDIADYYCQQSNNWPFTFGSGTKLEIKR | 96.1 | – | – | –
15G8 (antibody, human IgG4 S228P, kappa, V domains shown) VH: DVQLQGSGPGLVKPSETLSLTCSVTGYSITSGYYWNWIRQFPGKKLEWMGYISYDGSNNYNPSLKNRITISRDTSKNQFSLKLNSVTAADTATYYCAHGYSYYYAMDAWGQGTSVTVSS VL: DIQMTQSPSSLSASVGDRVTITCRTSQDISNYLNWYQQKPGKAVKLLISYTSRLHSGVPSRFSGSGSGTDYTLTISSLQPEDFATYYCQQGNTLPTFGQGTKLEIKR | 24.1 | – | 4.56 | 88.1
LK-RB1-46 (antibody, human IgG4 S228P, kappa, V domains shown) VH: EVQLQQSGPELVKPGASVKISCKTSGYTFTDYYMNWVKQSHGKSLEWIGDIYPINGDISYNQKFKGKATLTVDKSSSTVYMEIRSLTYEDSAVYYCARLAQTTSGGFDYWGQGTTLTVSS VL: DIVLTQSPTSLAVSLGQRAIISCKASQSVSFAGTSLMHWYQQKPGQQPKLLIYRASNLKAGVPTRFSGSGSRTDFTLNIHPVEEDDAATYYCQQSREYPMYTFGGGTKLEIKR | 2.71 | – | – | –

Further binders by falling EC50 [1], results first:

EC50 [1] [nM] | EC50 [2] [nM] | EC50 [3] [nM] | Top Inhibition (%) [3] [%] | Binder
769 | – | – | – | LK-RB1-44 (antibody, human IgG4 S228P, kappa, V domains shown) VH: QVQLQQSGTELAKPGASVKLSCKASGYTFTNYWMHWIKQRPGQGLEWIGYVHPTSDYTKYNQKFKDKATLTADKSSSTAYMQLNSLTYEDSAVYYCTRSSLYDTNYVFDSWGQGTTLTVSS VL: DILLTQSPAILSVSPGERVSFSCRASQSIGRSIHWFQQRTNGSPSLLIKYASESISGIPSRFSGGGSGTDFTLSISNVESEDIADYYCQQSNNWPFTFGSGTKLEIKR
40.2 | – | – | – | LK-RB1-59 (antibody, human IgG4 S228P, kappa, V domains shown) VH: QIQLVQSGPELKKPGETVKISCKASGYTFTTYGMSWVKQAPGKGLKWMGWINTYSGVPTYADDFKGRFAFSLETSASTAYLQINNLKNEDTATYFCARRRIYYGNKGYAMDYWGQGTSVTVSS VL: DIQMTQSPASLSVSVGETVTITCRASENIYSNLVWYQQKQGKSPQLLVYTATNLADGVPSRFSGSGSGTQFSLKINSLQSEDFGSYYCQHFWGTPWTFGGGTKLEIKR
37.7 | – | – | – | LK-RB1-37 (antibody, human IgG4 S228P, kappa, V domains shown) VH: QVQLQQPGAELVKPGASVKLSCKASGYTFTSYWMHWVKQRPGRGPEWIGRIDPNSGYARYNEKFKNKATLTADKPSSTADMHLSSLTSEDSAVYYCTRSFITTAEWFFDVWGTGTTVTVSS VL: DILLTQSPAILSVSPGERVSFSCRASQSIGTSIHWYQQRRNGSPRLLIKYTSESISGIPSRFSGSGSGTDFTLSINSVESEDIADYYCQQSNSWPHTFGGGTKLELKR
29.2 | – | 2.42 | 15.9 | LK-RB1-56 (antibody, human IgG4 S228P, kappa, V domains shown) VH: QVQLKQSGPGLVQPSQSLSITCSVSGFSLTNYGVHWVRQSPGKGLEWLGVIWRGGSTDNNAAFMSRLSITKDNSKSQVFFKMNSLQADDTAIYYCAKNSDFYGSSWYFDVWGTGTTVTVSS VL: QIVLSQSPAILSASPGEKVTMTCRASSSVSFMHWYQQKPGSSPKPWIYATSNLASGVPARFSGSGSGTSYSLTISRVEAEDAATYYCQQWSRNPPTFGAGTKLELKR
21.4 | – | 0.87 | 64.9 | LK-RB1-51 (antibody, human IgG4 S228P, kappa, V domains shown) VH: QVQIQQSGAELVKPGASVKLSCKASGYTFTEFPIHWIKQRSGQGLEWIGWFYPGSDNMNYNEKFKDKATLTADKSSSTVYMELSRLTSEDSAVYFCARHENAYFYAMDYWGQGTSVTVSS VL: ENVLTQSPAIMSASLGEKVTMSCRASSSVNYMYWYQQKSDASPKIWIYYTSNLAPGVPARFSGSGSGNSYSLTISSMEGEDAATYYCQQFTSSPFTFGTGTKLEIKR
15.1 | – | – | – | LK-RB2-8 (antibody, human IgG4 S228P, kappa, V domains shown) VH: QIQLVQSGPELKKPGETVKISCKASGYSFASYGMGWVKQAPGKGLKWLGWINTHSGVPTYADDFKGRFAFSLETSASTAYLQINNLKNEDTATYFCAHYGRPWFPYWGQGTLVTVSA VL: DIQMTQSPASLSASVGETVTITCRTSENIYSYLAWYQQKQGKSPQLLVYNAKSLAEGVPSRFSGSGSGTQFSLRINSLQPEDFGTYYCQQHYETPLTFGAGTKLELKR
8.06 | – | – | – | LK-RB1-34 (antibody, human IgG4 S228P, kappa, V domains shown) VH: QVQLQQSGAELVKPGASVKLSCKASGYTFTEYTIHWVKQRSGQGLEWIGWFYPGSDSIKYNEKFKDKATLTADKSSSTVYMELSRLTSEDSAVYFCSRHEGPYFTSQYYFDYWGQGTTLTVSS VL: DILLTQSPAILSVSPGERVSFSCRASRYIGTSIHWYQQRTNGSPRLLIKYASESISGIPSRFSGSGSGTDFTLSINSVESEDIADYYCQQSNTWPLTFGAGTKLELKR
1.62 | – | – | – | LK-RB1-43 (antibody, human IgG4 S228P, kappa, V domains shown) VH: EFQLQQSGPELMKPGASVKISCKASGYSFTDYNMNWVKQSNGKSLEWIGIIDPNYGTTTYNQKFKGRATLTVDQSSNTAYMQLNSLTSEDSAVYYCAREGRYSWFAYWGQGTLVTVSA VL: DIQMTQSPGALSVSVGETVTITCRASENINSNLAWYQQKQGKSPQLLVYAATNLADGVPSRFSGSGSGTQYSLKINSLQSEDFGSYHCQHFWGTPFTFGSGTKLEIKR
0.64 | – | – | – | LK-RB1-35 (antibody, human IgG4 S228P, kappa, V domains shown) VH: DVQLQESGPGLEKPSQSLSLTCSVTGYSITRGYQWNWIRQFPGNKLEWMGYISYDGSNNYNPSLKNRISITRDASKNQFFLKLNSVTTEDTATYYCARRSYNSIDYWGQGTTLTVSS VL: DIVLTQSPATLSVTPGDSVSLSCRASQSISSNLHWYQQKSHESPRLLIKYASQSISGIPSRFSGSGSGTDFTLSINSVETEDFGMYFCQQSNSWPLTFGAGTKLELKR
